T1: GST-B R13-30A (human, UniProt Q15554 43-86, R55A;R59A;R60A;R63A;R67A;R69A;R70A;R72A)
T1 chain: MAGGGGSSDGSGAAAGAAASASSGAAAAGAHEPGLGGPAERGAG


Assays:
[1] = molecular target: GST-A1-50B (human) (UniProt P54274+Q15554); assay: EMSA; details: RNA EMSA: 50 mM HEPES pH 8, 1 mM DTT, 100 mM NaCl, 0.01% BSA, 2% glycerol, 50 ng/uL E. coli tRNA, 0.25 nM RNA, 20 min on ice then 10 min 25 C; dsDNA EMSA: same …
[2] = molecular target: GST-AP2EAB (human) (UniProt P54274+Q15554); assay: EMSA; details: RNA EMSA: 50 mM HEPES pH 8, 1 mM DTT, 100 mM NaCl, 0.01% BSA, 2% glycerol, 50 ng/uL E. coli tRNA, 0.25 nM RNA, 20 min on ice then 10 min 25 C; dsDNA EMSA: same …
Chain of GST-AP2EAB (human) (P54274 whole entry, chain 1 of 2): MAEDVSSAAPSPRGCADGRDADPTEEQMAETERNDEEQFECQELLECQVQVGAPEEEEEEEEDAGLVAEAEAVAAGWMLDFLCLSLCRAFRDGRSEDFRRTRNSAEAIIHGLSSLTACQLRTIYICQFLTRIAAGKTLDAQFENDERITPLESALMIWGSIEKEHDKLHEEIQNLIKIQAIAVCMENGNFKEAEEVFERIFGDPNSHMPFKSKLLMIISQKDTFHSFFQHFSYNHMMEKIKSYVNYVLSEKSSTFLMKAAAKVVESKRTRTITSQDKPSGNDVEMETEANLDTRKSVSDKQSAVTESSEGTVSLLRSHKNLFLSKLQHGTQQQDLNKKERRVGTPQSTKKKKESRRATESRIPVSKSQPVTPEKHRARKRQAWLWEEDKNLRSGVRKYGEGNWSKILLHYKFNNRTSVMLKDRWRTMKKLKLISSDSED
Chain of GST-AP2EAB (human) (Q15554 whole entry, chain 2 of 2): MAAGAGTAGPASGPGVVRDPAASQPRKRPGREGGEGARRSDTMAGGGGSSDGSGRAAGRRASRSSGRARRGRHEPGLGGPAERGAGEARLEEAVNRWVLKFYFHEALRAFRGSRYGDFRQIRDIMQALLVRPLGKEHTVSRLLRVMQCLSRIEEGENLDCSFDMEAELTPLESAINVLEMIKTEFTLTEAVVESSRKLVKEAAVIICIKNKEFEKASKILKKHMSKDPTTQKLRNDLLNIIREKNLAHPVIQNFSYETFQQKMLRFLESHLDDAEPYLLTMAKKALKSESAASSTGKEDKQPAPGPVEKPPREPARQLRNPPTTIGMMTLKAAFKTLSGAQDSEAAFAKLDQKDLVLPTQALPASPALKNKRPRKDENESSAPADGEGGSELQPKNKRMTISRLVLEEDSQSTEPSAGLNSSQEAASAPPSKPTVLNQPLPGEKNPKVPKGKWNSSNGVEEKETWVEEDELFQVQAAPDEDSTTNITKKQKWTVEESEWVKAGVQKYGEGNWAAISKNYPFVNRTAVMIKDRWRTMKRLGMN

[3] = molecular target: GST-TRF1ΔA (human, UniProt P54274 67-439, del1-66); assay: EMSA; E. coli tRNA; RNA EMSA: 50 mM HEPES pH 8, 1 mM DTT, 100 mM NaCl, 0.01% BSA, 2% glycerol, 50 ng/uL E. coli tRNA, 0.25 nM RNA, 20 min on ice then 10 min 25 C; dsDNA EMSA: same; details: protein: recombinant, tags: N-terminal GST, chain copies: 2, label: 5'-32P
Chain of GST-TRF1ΔA (P54274 67-439, stated change not applied): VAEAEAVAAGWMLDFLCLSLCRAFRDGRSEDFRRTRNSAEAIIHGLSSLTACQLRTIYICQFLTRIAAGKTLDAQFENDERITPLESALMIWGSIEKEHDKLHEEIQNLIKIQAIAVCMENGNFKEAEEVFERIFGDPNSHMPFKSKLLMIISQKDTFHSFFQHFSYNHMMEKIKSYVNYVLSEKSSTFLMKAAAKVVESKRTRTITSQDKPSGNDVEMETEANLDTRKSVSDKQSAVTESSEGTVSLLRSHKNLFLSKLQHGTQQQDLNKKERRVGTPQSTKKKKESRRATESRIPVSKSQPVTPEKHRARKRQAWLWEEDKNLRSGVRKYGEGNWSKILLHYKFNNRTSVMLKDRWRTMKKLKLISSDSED

[4] = molecular target: GST-TRF2ΔB (human, UniProt Q15554 87-542, del43-86); assay: as above; details: protein: recombinant, tags: N-terminal GST, chain copies: 2, label: 5'-32P
Chain of GST-TRF2ΔB (Q15554 87-542, stated change not applied): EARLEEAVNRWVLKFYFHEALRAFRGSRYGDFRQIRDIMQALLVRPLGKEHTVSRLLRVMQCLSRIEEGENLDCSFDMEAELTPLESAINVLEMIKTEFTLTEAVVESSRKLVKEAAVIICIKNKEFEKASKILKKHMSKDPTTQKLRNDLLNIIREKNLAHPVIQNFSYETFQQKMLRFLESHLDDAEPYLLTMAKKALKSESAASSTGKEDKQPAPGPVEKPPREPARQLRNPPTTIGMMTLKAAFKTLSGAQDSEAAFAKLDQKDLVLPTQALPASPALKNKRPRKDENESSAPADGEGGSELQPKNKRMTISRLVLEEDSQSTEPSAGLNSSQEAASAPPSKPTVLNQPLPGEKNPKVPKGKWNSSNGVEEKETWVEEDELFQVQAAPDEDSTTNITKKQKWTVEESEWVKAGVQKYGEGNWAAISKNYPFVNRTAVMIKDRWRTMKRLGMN

[5] = molecular target: T1, GST-B R13-30A; assay: as above; details: protein: recombinant; tags: N-terminal GST; label: 5'-32P; G4-forming

Chain of GST-A1-50B (human) (P54274 whole entry, chain 1 of 2): as the sequence (P54274 whole entry, chain 1 of 2) above
Chain of GST-A1-50B (human) (Q15554 whole entry, chain 2 of 2): as the sequence (Q15554 whole entry, chain 2 of 2) above

| Molecule | binding result ([3]; not G4-forming) | binding result ([4]; not G4-forming) | binding result ([3]; G4-forming) | binding result ([4]; G4-forming) | further results |
| --- | --- | --- | --- | --- | --- |
| UUAGGGUUAGGGUUAGGGUUAGGGUUAGGGUUAGGGUUAGGGUUAGGGUUAGGGUUAGGGUUAGGGUUAGGG [TERRA (UUAGGG)12] | – | – | – | – | binding signal (% of B domain alone) [1]: 60; binding signal (% binding regained at 320 nM) [2]: 80 |
| UUACCGUUACCGUUACCGUUACCGUUACCG (ssRNA) [MUT2 (UUACCG)5] | no binding | no binding | – | – | – |
| UUACGGUUACGGUUACGGUUACGGUUACGG (ssRNA) [MUT1 (UUACGG)5] | no binding | no binding | – | – | – |
| UUAGGGUUAGGGUUAGGGUUAGGGUUAGGG (structured_RNA) [TERRA (UUAGGG)5] | – | – | binds | binds | binding result [5]: no binding |
| AAAGGGAAAGGGAAAGGGAAAGGGAAAGGG (structured_RNA) [MUT4 (AAAGGG)5] | – | – | binds | binds | – |
| AUAGGGAUAGGGAUAGGGAUAGGGAUAGGG (structured_RNA) [MUT3 (AUAGGG)5] | – | – | binds | binds | – |
